Tests used:
Assay in all cases: ELISA (FIG. 4)
human IL-17D = target: T1, human IL-17D (human, UniProt Q8TAD2 18-202, limits assumed)
T1 sequence (looked up): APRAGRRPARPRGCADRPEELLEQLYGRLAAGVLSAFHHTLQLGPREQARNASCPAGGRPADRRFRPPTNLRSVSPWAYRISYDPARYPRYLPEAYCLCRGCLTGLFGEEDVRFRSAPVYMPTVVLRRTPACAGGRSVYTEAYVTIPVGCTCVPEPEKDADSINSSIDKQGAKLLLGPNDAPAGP
Description: (§1) MaxiSorp 96-well plates (NUNC #449824, www.thermofisher.com) were coated with 2 μg/ml human IL-17A (Cell Signaling #89285F, www.cellsignal.com), human IL-17F (Cell Signaling #8906LC, www.cellsignal.com), human IL-17B (Peprotech #200-28, www.peprotech.com), human IL-17C (R&D systems #1234-IL-025/CF, www.rndsystems.com), human IL-17D ((Peprotech #200-27, www.peprotech.com), human IL-17E (R&D systems #1258-IL-025/CF, www.rndsystems.com) in 1×PBS (50 μl/well) respectively. Plates were incubated at 4° C. overnight. Coating solution was removed and plates were washed once with 200 μl/well PBST (1×PBS with 0.05% tween-20). Then 200 μl/well blocking buffer (1×PBS with 0.05% tween-20, 3% BSA) was added and incubated at room temperature for 1 hour. Blocking buffer was removed and plates were washed three times with 200 μl/well PBST (1×PBS with 0.05% tween-20). The anti-IL-25 antibodies (produced in Example 2), were diluted to 10, 3.33, 1.11, 0.37, 0.123, 0.041, 0.0137, 0.0046, 0.0015, 0.00031, 0.000102, 0.000034 μg/ml by 1×PBS and added to the plates (50 μl/well). Plates were incubated at room temperature for 2 hours. Antibodies in the wells were removed and plates were washed three times with 200 μl/well PBST (1×PBS with 0.05% tween-20) each time. Goat anti-human IgG(H&L)-HRP secondary antibody (Jackson Immuno Research #109-035-088, www.jacksonimmuno.com) was diluted 1:5000 in 1×PBS and added to each well (50 μl/well). Plates were incubated at room temperature for 1 hour. Secondary antibody was removed and plates were washed seven times with 200 μl/well PBST (1×PBS with 0.05% tween-20) each time. 50 μl/well TMB (eBioscience #85-00-4201-56, www.ebioscience.com) was added and plates were incubated at room temperature for several minutes. Then 50 μl/well 2N H₂SO₄ was added to stop the reaction. Plates were read at 450 nm.

human IL-17F = target: T2, human IL-17F (human, UniProt Q96PD4 31-163)
T2 sequence (looked up): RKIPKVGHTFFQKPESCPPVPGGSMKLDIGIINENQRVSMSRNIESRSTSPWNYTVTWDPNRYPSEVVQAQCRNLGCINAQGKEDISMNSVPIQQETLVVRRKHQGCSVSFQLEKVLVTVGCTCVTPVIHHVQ
Description: as §1

human IL-17A = target: T3, human IL-17A (human, UniProt Q16552 24-155, limits assumed)
T3 sequence (looked up): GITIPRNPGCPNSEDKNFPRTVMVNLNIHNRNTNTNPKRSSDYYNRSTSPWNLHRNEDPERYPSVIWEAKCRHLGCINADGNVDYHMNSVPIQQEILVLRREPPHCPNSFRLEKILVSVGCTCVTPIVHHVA
Description: as §1

binding result (human IL-17D): no binding
binding result (human IL-17F): no binding
binding result (human IL-17A): no binding
B1: murine anti-IL-25 monoclonal antibody 18H3 (antibody, V domains shown)
VH: QVTLKESGPGILQPSQTLSLTCSFSGFSLSTSGMGLGWIRQPSGKGLEWLAHIWWDDVKHYKPALKSRLTISKDISSSQVFLTIASVDTADTATYYCARMGQLHYYGYDYAMDYWGQGTSVTVSS
VL: QIVLTQSPAIMSASPGEKVTISCSASSSVSYMYWYQQKPGSSPKPWIYRTSNLASGVPARFSGSGSGTSYSLTISSMEAEDAATYYCQLYHSYPPTWTFGGGTKLEIK
notes: also called parental antibody; parental murine mAb

From patent US20210332123A1 (SUZHOU KANOVA BIOPHARMACEUTICAL, published 2021)
